B1: MUTE, recombinant full-length protein (1-202), as used in ITC (natural protein, A. thaliana, UniProt Q9M8K6 1-202, looked up)
chain: MSHIAVERNRRRQMNEHLKSLRSLTPCFYIKRGDQASIIGGVIEFIKELQQLVQVLESKKRRKTLNRPSFPYDHQTIEPSSLGAATTRVPFSRIENVMTTSTFKEVGACCNSPHANVEAKISGSNVVLRVVSRRIVGQLVKIISVLEKLSFQVLHLNISSMEETVLYFFVVKIGLECHLSLEELTLEVQKSFVSDEVIVSTN
notes: called full-length in the results; source: E. coli BL21, purified (glutathione resin, thrombin digestion, Superdex-200); not shown: GST, N-terminal, cleaved
B2: SCREAM (SCRM), recombinant full-length protein (1-494) (natural protein, A. thaliana, UniProt Q9LSE2 1-494, looked up)
chain: MGLDGNNGGGVWLNGGGGEREENEEGSWGRNQEDGSSQFKPMLEGDWFSSNQPHPQDLQMLQNQPDFRYFGGFPFNPNDNLLLQHSIDSSSSCSPSQAFSLDPSQQNQFLSTNNNKGCLLNVPSSANPFDNAFEFGSESGFLNQIHAPISMGFGSLTQLGNRDLSSVPDFLSARSLLAPESNNNNTMLCGGFTAPLELEGFGSPANGGFVGNRAKVLKPLEVLASSGAQPTLFQKRAAMRQSSGSKMGNSESSGMRRFSDDGDMDETGIEVSGLNYESDEINESGKAAESVQIGGGGKGKKKGMPAKNLMAERRRRKKLNDRLYMLRSVVPKISKMDRASILGDAIDYLKELLQRINDLHNELESTPPGSLPPTSSSFHPLTPTPQTLSCRVKEELCPSSLPSPKGQQARVEVRLREGRAVNIHMFCGRRPGLLLATMKALDNLGLDVQQAVISCFNGFALDVFRAEQCQEGQEILPDQIKAVLFDTAGYAGMI
notes: SCRM (ICE1), A. thaliana, residues 1-494; called full-length in the results; The methods describe thrombin removal of GST for all recombinant proteins; For the BLI runs of SCRM with MUTE one partner must have kept GST (anti-GST probes); also called ICE1; source: E. coli BL21, purified (glutathione resin, thrombin digestion, Superdex-200); not shown: GST, N-terminal, cleaved

Columns and labels:
SCRM-SPCH heterodimer = biological target: T1, SCRM-SPCH heterodimer (Arabidopsis thaliana, UniProt Q700C7); test: Y2H growth and quantitative α-galactosidase assay; type: cell-based; settings: 50 μM; 1 mM 3-AT; N-terminally truncated SPCH
T1 construct: truncated SPCH and FAMA proteins lacking their N-terminal domain were used in yeast; expressed in transfected cells; host or cells: yeast strain AH109
T1 sequence (Q700C7 98-364 limits assumed): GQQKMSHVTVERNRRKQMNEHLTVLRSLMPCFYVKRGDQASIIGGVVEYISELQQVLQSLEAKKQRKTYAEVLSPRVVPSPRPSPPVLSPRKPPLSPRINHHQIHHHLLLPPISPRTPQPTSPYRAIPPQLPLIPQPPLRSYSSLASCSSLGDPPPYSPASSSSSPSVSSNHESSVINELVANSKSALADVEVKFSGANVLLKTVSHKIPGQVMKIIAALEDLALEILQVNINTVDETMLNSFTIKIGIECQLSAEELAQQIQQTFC
Method: (§1) Y2H assays were performed using the Matchmaker^TM Two-Hybrid System (Clontech). Bait (pGBKT7) and prey (pGADT7) constructs were co-transformed into the yeast strain AH109 using Frozen-EZ Yeast Transformation II Kit (Zymo Research, T2001). The resulting transformants were spotted on SD ( − Leu, −Trp) and SD ( − Trp, −Leu, −His) selection media containing different concentrations of 3-amino-1,2,4-triazole (Sigma, A8056) as previously reported. Quantitative α-galactosidase assay was also performed according to manufactural instruction (Clontech). Briefly, the transformants were incubated in 2 ml SD medium with 0, 10, 50 100 μM Stomidazolone (3) or SIM3* (7) with rotary shake (220 rpm) at 30 °C overnight. The cultured media containing yeast were transferred to microtubes and centrifuged to obtain the supernatant. The colorimetric assay was performed by incubating 8 μL of supernatant with 24 μL Assay Buffer that contains 0.5 M sodium acetate (pH 4.5) (Nakalai tesque, 31137-25): 100 mM p-nitrophenyl α-D-Galactopyranoside Solution (Sigma N0877) = 2:1 (v/v) at 30 °C for 60 min, then terminated by adding 960 μL 1X Stop Solution (0.1 M sodium carbonate, Fujifilm Wako 195-01582). After OD410 was recorded, α-galactosidase units were calculated according to the protocol (Clontech, P3024-1).

SCRM-MUTE heterodimer = biological target: T2, SCRM-MUTE heterodimer (Arabidopsis thaliana, UniProt Q9M8K6); test: Y2H growth and quantitative α-galactosidase assay; type: cell-based; settings: 50 μM; 1 mM 3-AT
T2 construct: expressed in transfected cells; host or cells: yeast strain AH109
T2 sequence (Q9M8K6 1-202): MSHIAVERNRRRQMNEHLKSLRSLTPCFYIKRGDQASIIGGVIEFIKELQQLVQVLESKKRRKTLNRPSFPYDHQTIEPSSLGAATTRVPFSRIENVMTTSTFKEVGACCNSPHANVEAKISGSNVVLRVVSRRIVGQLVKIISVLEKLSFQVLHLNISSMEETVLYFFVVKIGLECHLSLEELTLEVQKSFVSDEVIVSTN
Method: as §1

SCRM-FAMA heterodimer = biological target: T3, SCRM-FAMA heterodimer (Arabidopsis thaliana, UniProt Q56YJ8); test: Y2H growth and quantitative α-galactosidase assay; type: cell-based; settings: 50 μM; 1 mM 3-AT; N-terminally truncated FAMA
T3 construct: truncated SPCH and FAMA proteins lacking their N-terminal domain were used in yeast; expressed in transfected cells; host or cells: yeast strain AH109
Method: as §1

[1] = system: Arabidopsis wild-type (WT) seedlings; test: Stomatal development bioassay, seedlings in liquid culture; type: in vivo; settings: 50 μM; WT seedlings, liquid culture
Method: Arabidopsis accession Columbia (Col-0) was used as wild-type. […] Their genotype and transcript reduction were confirmed. The presence of transgenes/mutant alleles were confirmed by genotyping. For liquid culture with Stomidazolone (AYSJ929, compound 3), the analogs (AYSJ1059 (compound 5) and AYSJ1061 (compound 6)), degraded compound lzx103 (compound 4), and SIM3* (compound 7), all compounds were dissolved in dimethyl sulfoxide (DMSO, Molecular biology grade, Fujifilm Wako, Japan 046-21981), Col-0 seeds were sown in 96-well plates (TL5003; True Line) containing 95 μL of 1/2 MS media containing 0.5% sucrose with rotary shaking at 140 rpm under continuous light at 22 °C. Five μL of compounds were dissolved in DMSO at 10 mM and diluted with liquid 1/2 MS media to 1 mM and added on 1-day-old seedlings (final concentration, 50 μM). Seedlings were incubated for 8 days, and at day 9 seedling abaxial cotyledons were observed through confocal microscopy. For liquid culture of scrm-D_S343 and scrm-D_S423, 1/2 MS liquid media without sucrose was used. For the solid culture, 0, 20, 50 or 100 μM Stomidazolone were solidified with low-melting agarose (5805S, PrimeGelTM Agarose LMT 1-20 K, TAKARA Bio). Briefly, 1/2 MS salt, 0.5% sucrose, and 0.8% low melting agarose were mixed in water and autoclaved. After cooling the medium at around 30 °C, Stomidazolone (500x, dissolved in DMSO) was added and poured into 90 mm petri dishes (Asnol Petri Dish JP φ90 x 15 mm, 3-1491-01, AS ONE). Col-0 seeds were sown on Stomidazolone-containing 1/2 MS agarose media and grown under continuous light for 9 days.
For confocal microscopy, cell peripheries of seedlings were visualized with propidium iodide (Sigma, P4170). Images were acquired using LSM800 or LSM700 (Zeiss) using a 20x lens. The GFP, YFP reporter and PI signals were detected with excitation at 488 nm and an emission filter of 410 to 546 nm, at 488 nm and an emission filter of 410 to 546 nm, and with excitation at 561 nm and 582–617 nm emission range, respectively. Raw data were collected with 1024 × 1024 pixel images. For qualitative image presentation, Adobe Photoshop CC was used to trim and uniformly adjust the contrast/brightness.
For quantitative analysis of the abaxial leaf epidermis, confocal images were taken on the days after germination as indicated in the Figure legends. Preparation of images was done as described previously[32],[70]. For counting epidermal cell types, stomatal density, stomatal precursor cells (meristemoids), total stomata-lineage cells (stomata and meristemoids) were calculated by counting cell types in an area of 0.4 mm^2 (0.63 mm × 0.63 mm) and plotted as per mm^2. A series of Z-stack confocal images was obtained to obtain images covering the epidermis and capturing GFP/YFP signal from the reporter lines. The area and the number of epidermal cells were quantified by using FIJI-ImageJ. Statistical analyses were performed using R ver. 4.0.2. Sample sizes (n) are indicated and defined in each legend. For the multiple sample comparison, 1-way ANOVA was performed followed by a post hoc Tukey HSD test. For the two-sample comparison, Student’s T-test was performed. Graphs were generated using R ggplot2 package. For all boxplots, each box represents IQR (interquartile range), in which top, middle line, and bottom indicating 75, 50, and 25 percentiles, respectively, and the bar representing maximum to minimal values. Each magenta dot represents jittered individual data point. The datapoints that go beyond the bar are outliers, which are indicated as black dots. If the data point is greater than Q3 + 1.5*IQR (above the third quartile is greater than 1.5 times of the interquartile range) or less than Q1 − 1.5*IQR, that data point is classified as outlier. The color of Boxplot graph was based on ColorBrewer.org. The value of n, the number of each experiment or samples, the means of error bars, and how statistical significance was defined are indicated in a relevant figure legend. […]

stomatal movement = system: stomatal movement; design: method as in PMID 35042960; settings: previous chemical screens and SAR studies; cited from earlier work
[2] = biological target: B2; test: ITC; SCRM to MUTE in the presence of AYSJ1061 (6); Malvern PEAQ-ITC; PBS with 2% DMSO and 1 mM DTT; methods: 30 °C, pH 7.4; legend of Supplementary Table 2: pH 7.2, 25 °C; settings: both partners purified
[3] = biological target: B2; test: ITC; SCRM to MUTE in the presence of AYSJ1059 (5); Malvern PEAQ-ITC; PBS with 2% DMSO and 1 mM DTT; methods: 30 °C, pH 7.4; legend of Supplementary Table 2: pH 7.2, 25 °C; settings: both partners purified
[4] = biological target: B1; test: ITC; SCRM to MUTE in the presence of AYSJ1061 (6); Malvern PEAQ-ITC; PBS with 2% DMSO and 1 mM DTT; methods: 30 °C, pH 7.4; legend of Supplementary Table 2: pH 7.2, 25 °C; settings: both partners purified
[5] = biological target: B1; test: ITC; SCRM to MUTE pre-incubated with Stomidazolone (3); Malvern PEAQ-ITC; PBS with 2% DMSO and 1 mM DTT; methods: 30 °C, pH 7.4; legend of Supplementary Table 2: pH 7.2, 25 °C; settings: both partners purified
[6] = biological target: B1; test: ITC; SCRM to MUTE, no compound; Malvern PEAQ-ITC; PBS with 2% DMSO and 1 mM DTT; methods: 30 °C, pH 7.4; legend of Supplementary Table 2: pH 7.2, 25 °C; means of two experiments; settings: both partners purified
[7] = biological target: B1; test: ITC; SCRM to MUTE in the presence of AYSJ1059 (5); Malvern PEAQ-ITC; PBS with 2% DMSO and 1 mM DTT; methods: 30 °C, pH 7.4; legend of Supplementary Table 2: pH 7.2, 25 °C; settings: both partners purified

T3 sequence (Q56YJ8 190-414, one chain of several): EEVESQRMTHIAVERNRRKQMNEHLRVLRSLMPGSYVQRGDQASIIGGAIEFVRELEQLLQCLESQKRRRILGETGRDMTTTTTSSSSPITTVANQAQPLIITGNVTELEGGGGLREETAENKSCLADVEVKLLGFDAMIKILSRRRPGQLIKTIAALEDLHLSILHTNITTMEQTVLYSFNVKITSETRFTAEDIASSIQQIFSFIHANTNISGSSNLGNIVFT

Molecule: Cc1nc(-c2ccccc2)c(NS(=O)(=O)c2ccccc2)o1 [SIM3*, reference compound]
- effect on association in Y2H growth assay (SCRM-SPCH heterodimer): no effects
- effect on association in Y2H growth assay (SCRM-MUTE heterodimer): no effects
- effect on association in Y2H growth assay (SCRM-FAMA heterodimer): no effects
- effect on stomatal development (in words) [1]: no effects
- effect on stomatal movement (in words) (stomatal movement): inhibit stomatal movement

Molecule: B1
- Kd [2]: 11.4 ± 2.1 nM
- Kd [3]: 9.6 ± 1.8 nM

Molecule: B2
- stoichiometry N [4]: 1.1
- stoichiometry N [5]: 0.91
- stoichiometry N [6]: 0.96
- stoichiometry N [7]: 1
